# According to PMC4466255, “Direct Ionic Regulation of the Activity of Myo-Inositol Biosynthesis Enzymes in Mozambique Tilapia” (PLoS ONE, 2015):
# T1: MIPS-160 (Oreochromis mossambicus, UniProt Q1KN76)
# T1 construct: full-length CDS from seawater-acclimated gill cDNA, pET24a, 6xHis tag kept (C-terminal in Results, amino-terminal in Methods), E. coli Rosetta 2(DE3)pLysS, 61 kDa
# T1 sequence (Q1KN76 1-518): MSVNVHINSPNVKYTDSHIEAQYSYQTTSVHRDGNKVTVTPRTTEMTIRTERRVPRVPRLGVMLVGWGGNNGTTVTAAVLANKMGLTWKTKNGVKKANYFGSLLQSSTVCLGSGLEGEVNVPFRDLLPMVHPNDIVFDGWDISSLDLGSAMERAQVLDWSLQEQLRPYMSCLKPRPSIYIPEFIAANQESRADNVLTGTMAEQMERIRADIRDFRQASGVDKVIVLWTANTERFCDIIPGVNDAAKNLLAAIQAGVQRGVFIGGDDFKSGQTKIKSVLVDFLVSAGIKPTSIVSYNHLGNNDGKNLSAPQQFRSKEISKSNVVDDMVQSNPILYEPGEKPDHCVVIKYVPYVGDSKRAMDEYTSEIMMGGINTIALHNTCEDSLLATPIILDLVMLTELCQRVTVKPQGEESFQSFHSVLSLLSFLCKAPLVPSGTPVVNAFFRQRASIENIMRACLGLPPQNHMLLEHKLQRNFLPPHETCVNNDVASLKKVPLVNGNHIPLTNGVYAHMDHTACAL
# B1: IMPase 1 (Oreochromis mossambicus) (protein)
# chain: MEDPWQKAYDFAVAVARKAGAEIRKAGESEIRVMTKSSTVDLVTKTDERVEKIIIGSLKEEFGEGTHCFIGEESVAKGEPCILTDKPTWIIDPVDGTTNFVHGFPFVAVSIAFAVNKELEFGVVYSCLEDKMYKARKGKGAFCDNEPIAVSDVKDINRSIIIFEHGTDRSPEKVTKIFFTMQKILCIPVHGLRGSGTAGYKQCLVVIGGSEGVFDIGIHCWDIAAGADIVKEAGGILLDVDGGPFDLMSRRMVSANNETIAKRIIKEIEIFPVVRDDAPIEKK
# notes: full-length CDS from seawater-acclimated gill cDNA, pET24a, 6xHis tag kept (C-terminal in Results, amino-terminal in Methods), E. coli Rosetta 2(DE3)pLysS, 32 kDa
# Tests used:
# MIPS-160 = target: T1, MIPS-160; test: activity with or without NAD+; assay type: biochemical; conditions: G6P as substrate; 28°C
# [1] = substrate: O=P(O)(O)O[C@@H]1[C@@H](O)[C@H](O)[C@@H](O)[C@H](O)[C@@H]1O; test: Pi release, BioMol Green, Michaelis-Menten fit; assay type: biochemical, Oreochromis mossambicus; conditions: 50 mM Tris-HCl pH 8.2, 50 mM NaCl, 1 mM MgCl2, 28°C, standard buffer IAB, 220 mOsm
# Description: (§1) Pi release, BioMol Green, Michaelis-Menten fit on IMPase 1
# [2] = substrate: O=P(O)(O)O[C@@H]1[C@H](O)[C@H](O)[C@@H](O)[C@H](O)[C@H]1O; test: Pi release, BioMol Green, Michaelis-Menten fit; assay type: biochemical, Oreochromis mossambicus; conditions: 50 mM Tris-HCl pH 8.2, 50 mM NaCl, 1 mM MgCl2, 28°C, standard buffer IAB, 220 mOsm
# Description: as §1
Molecule,activity with or without NAD+ (MIPS-160),Km [1],Vmax [1],kcat [1],kcat/Km [1],Km [2],Vmax [2],kcat [2],kcat/Km [2]
NC(=O)c1ccc[n+]([C@@H]2O[C@H](COP(=O)(O)OP(=O)(O)OC[C@H]3O[C@@H](n4cnc5c(N)ncnc54)[C@H](O)[C@@H]3O)[C@@H](O)[C@H]2O)c1 [NAD^+],MIPS-160 activity depends on NAD^+ (Fig 5B),–,–,–,–,–,–,–,–
B1,–,930 ± 350 µM,0.0027 ± 0.0006 nmol/s,0.962 ± 0.102 s⁻¹,1050 ± 200 M⁻¹ s⁻¹,538 ± 74 µM,0.0073 ± 0.0007 nmol/s,2.585 ± 0.112 s⁻¹,4800 ± 1100 M⁻¹ s⁻¹
